Biological target: the molecule itself
Assay: SEC

B1: His-tagged RsrI N6-adenine DNA methyltransferase (M.RsrI), wild type (enzyme, UniProt P14751 1-319, looked up)
chain: MANRSHHNAGHRAMNALRKSGQKHSSESQLGSSEIGTTRHVYDVCDCLDTLAKLPDDSVQLIICDPPYNIMLADWDDHMDYIGWAKRWLAEAERVLSPTGSIAIFGGLQYQGEAGSGDLISIISHMRQNSKMLLANLIIWNYPNGMSAQRFFANRHEEIAWFAKTKKYFFDLDAVREPYDEETKAAYMKDKRLNPESVEKGRNPTNVWRMSRLNGNSLERVGHPTQKPAAVIERLVRALSHPGSTVLDFFAGSGVTARVAIQEGRNSICTDAAPVFKEYYQKQLTFLQDDGLIDKARSYEIVEGAANFGAALQRGDVAS
stoichiometry N: 2

— article PMC1361615 (Nucleic Acids Research, 2006)
